# Results: patent US20210139607A1 (JACKSON LABORATORY, published 2021)
# B1: mouse anti-NGly-1 monoclonal antibody, clone 5G8 (antibody, V domains shown)
# VH: QVQLQQSGAELVRPGTSVKVSCKASGYAFINYLIEWVKQRPGQGLEWIGIISPGSGSTNYNEEFRGRATLTADRSSSTAYMQLSSLTSDDSAVYFCARGGLTHYSGSTYEEGFDFWGQGTTLTVSS
# VL: QAVVTQESALTTSPGETVTLTCRSSTGAVTTTNYANWVQEKPDHLFTGLIGGTNNRAPGVPARFSGSLIGDKAALTITGAQTDDEAIYFCALWYSNRWVFGGGTKLTVLG
# notes: also called anti-NGly-1 monoclonal antibody of the present disclosure; Mouse monoclonal (anti-mouse peptide), JAX Monoclonal Service
# Target: T1, human N-glycanase 1 (NGLY-1) (human, UniProt Q96IV0 2-654)
# T1 construct: Endogenous protein in cell lysates, denatured on immunoblots; also called human NGLY1 protein
# T1 sequence (looked up): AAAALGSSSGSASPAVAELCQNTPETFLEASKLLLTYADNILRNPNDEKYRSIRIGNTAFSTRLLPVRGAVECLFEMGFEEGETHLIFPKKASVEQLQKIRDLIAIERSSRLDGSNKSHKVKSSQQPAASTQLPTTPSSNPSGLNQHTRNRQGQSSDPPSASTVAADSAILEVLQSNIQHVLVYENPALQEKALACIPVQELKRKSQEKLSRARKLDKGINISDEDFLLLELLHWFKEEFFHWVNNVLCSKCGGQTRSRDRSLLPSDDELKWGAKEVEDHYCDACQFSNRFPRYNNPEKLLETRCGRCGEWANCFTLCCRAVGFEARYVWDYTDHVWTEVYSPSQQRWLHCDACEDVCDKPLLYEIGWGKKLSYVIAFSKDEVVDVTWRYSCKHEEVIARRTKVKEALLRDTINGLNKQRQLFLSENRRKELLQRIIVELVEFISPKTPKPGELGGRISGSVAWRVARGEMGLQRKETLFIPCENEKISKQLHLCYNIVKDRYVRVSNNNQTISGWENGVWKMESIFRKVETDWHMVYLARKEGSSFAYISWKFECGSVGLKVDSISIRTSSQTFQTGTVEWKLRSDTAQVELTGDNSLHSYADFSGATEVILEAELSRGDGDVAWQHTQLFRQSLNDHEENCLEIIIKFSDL
# Assay: immunoblot on isogenic human NGLY1 null and wild type iPS cell lines
# Procedure: The conjugate was injected into female BALB/cJ mice at a dose of 10 μg per mouse with Alum adjuvant. Mice were immunized by i.p injection three times approximately two (2) weeks apart. Ten days after the third immunization, splenocytes were isolated and fused with SP2 myeloma cells to create hybridoma cell lines. Hybridomas were cultured in 96-well plates and supernatants screened on protein arrays and by ELISA. Positive clones were further validated by western blot using lysates prepared from C57BL/6J and the CRISPR/Cas9 generated null strain as positive and negative controls. Additional immunoblots were used to identify additional clones that generated antibodies capable of cross reacting with human NGLY1 protein. Isogenic human derived NGLY1 null and wild type iPS cell lines providing positive and negative controls evaluation of anti-human NGLY1 cross-reactivity were provided. A single hybridoma gave rise to clone 5G8 that generated an antibody that was specific to both murine and human NGLY1 protein and was used for subsequent studies.
binder,measurement,value
B1,binding result,binds
